Source: patent publication US20230416380A1 (AJOU UNIVERSITY INDUSTRY ACADEMIC COOPERATION FOUNDATION, published 2023)

Assays:
[1] = target: T1, sIL-5Rα (extracellular domain of human IL-5 receptor alpha subunit, Asp1-Asn313 of SEQ ID NO: 19, C-terminal Avi tag and 6×His tag, expressed in HEK293F) (human) (UniProt Q01344); test: binding competition ELISA: IL-5-mFc coated (competitor), antibody dilutions plus 100 nM IL-5Rα, anti-his-HRP
T1 sequence: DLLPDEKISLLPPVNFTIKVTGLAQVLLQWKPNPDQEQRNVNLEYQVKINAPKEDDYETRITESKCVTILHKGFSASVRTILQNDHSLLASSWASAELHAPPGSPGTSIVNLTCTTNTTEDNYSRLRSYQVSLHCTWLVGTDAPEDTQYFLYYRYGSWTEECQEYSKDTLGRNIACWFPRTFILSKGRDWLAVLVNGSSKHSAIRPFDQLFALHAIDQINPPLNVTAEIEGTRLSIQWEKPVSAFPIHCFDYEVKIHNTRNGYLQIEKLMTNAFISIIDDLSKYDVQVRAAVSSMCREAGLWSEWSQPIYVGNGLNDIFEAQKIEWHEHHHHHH

[2] = target: T1, sIL-5Rα (extracellular domain of human IL-5 receptor alpha subunit, Asp1-Asn313 of SEQ ID NO: 19, C-terminal Avi tag and 6×His tag, expressed in HEK293F) (human); test: BLI (Octet QKe), antibody on AHC sensor, sIL-5Rα in solution, 1:1 model
[3] = target: T2, human IL-5Rα on cells (TF-1/IL-5Rα cells stably overexpressing IL-5Rα; human eosinophils) (human) (UniProt Q01344); test: cell-based or functional assay
T2 sequence (looked up): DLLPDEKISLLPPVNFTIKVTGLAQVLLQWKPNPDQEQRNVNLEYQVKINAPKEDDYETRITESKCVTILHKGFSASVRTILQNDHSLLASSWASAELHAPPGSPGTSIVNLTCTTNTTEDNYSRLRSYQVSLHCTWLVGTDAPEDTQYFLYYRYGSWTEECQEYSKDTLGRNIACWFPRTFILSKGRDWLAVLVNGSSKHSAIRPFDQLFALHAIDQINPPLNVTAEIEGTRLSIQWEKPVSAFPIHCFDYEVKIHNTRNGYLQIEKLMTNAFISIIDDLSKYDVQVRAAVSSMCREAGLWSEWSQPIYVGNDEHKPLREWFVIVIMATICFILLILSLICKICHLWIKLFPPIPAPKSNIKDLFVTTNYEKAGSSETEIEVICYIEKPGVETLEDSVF

[4] = target: T3, human IL-5Rα on cells (TF-1/IL-5Rα cells stably overexpressing IL-5Rα; human eosinophils) (human, UniProt Q01344 21-420); test: cell-based or functional assay
T3 sequence (looked up): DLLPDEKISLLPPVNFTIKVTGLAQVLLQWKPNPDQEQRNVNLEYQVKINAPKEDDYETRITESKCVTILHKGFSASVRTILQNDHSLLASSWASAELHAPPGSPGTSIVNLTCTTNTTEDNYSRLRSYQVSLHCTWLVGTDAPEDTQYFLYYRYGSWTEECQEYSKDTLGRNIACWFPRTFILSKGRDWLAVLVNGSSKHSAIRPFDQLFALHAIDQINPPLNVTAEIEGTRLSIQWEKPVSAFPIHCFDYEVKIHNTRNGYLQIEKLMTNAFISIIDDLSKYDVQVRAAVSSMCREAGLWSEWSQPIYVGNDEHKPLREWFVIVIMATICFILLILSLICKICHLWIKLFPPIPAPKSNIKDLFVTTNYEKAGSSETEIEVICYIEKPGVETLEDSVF

[5] = target: T4, sIL-5Rα (extracellular domain of human IL-5 receptor alpha subunit, Asp1-Asn313 of SEQ ID NO: 19, C-terminal … (human, UniProt Q01344 21-333)); test: BLI (Octet QKe), comparison of KD values
T4 construct: also called sIL-5Rα antigen protein
T4 sequence: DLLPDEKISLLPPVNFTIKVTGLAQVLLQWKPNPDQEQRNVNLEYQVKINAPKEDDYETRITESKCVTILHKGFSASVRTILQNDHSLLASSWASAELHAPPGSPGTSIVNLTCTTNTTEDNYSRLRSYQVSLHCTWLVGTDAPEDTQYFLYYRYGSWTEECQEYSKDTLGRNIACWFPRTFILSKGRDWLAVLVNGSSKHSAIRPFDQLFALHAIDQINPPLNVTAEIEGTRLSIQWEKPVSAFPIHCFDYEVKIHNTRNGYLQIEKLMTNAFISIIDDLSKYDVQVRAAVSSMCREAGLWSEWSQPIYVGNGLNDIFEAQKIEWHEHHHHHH
Protocol: (§1) Specifically, 1× kinetic buffer was prepared by diluting 10× kinetic buffer (ForteBio, 18-1105) in PBS. […] Affinity was calculated with Octet Data Analysis software 11.0 in a 1:1 binding model.

[6] = target: T4, sIL-5Rα (extracellular domain of human …); test: binding competition ELISA: IL-5-mFc coated (competitor), antibody dilutions plus 100 nM IL-5Rα, anti-his-HRP; 5R65 antibody; IL-5-mFc coated, 100 nM IL-5Rα, anti-his-HRP
Protocol: (§2) Prior to biological efficacy evaluation, binding competition ELISA was performed to determine whether or not anti-IL-5Rα humanized antibodies bind competitively with IL-5 to the IL-5 binding site of IL-5Rα. Specifically, IL-5 (Uniprot code: P05113, Ile20-Ser134) was fused to the G4S linker and the heavy-chain constant region (hinge-CH2-CH3) of mouse IgG2a, was subjected to transient transfection and purified (FIG. 5C). The purified IL-5-mFc proteins were immobilized at a density of 100 ng/well on a 96-well plate at room temperature for 1 hour, and blocked using 0.1% PBST containing 2% skim milk at room temperature for 1 hour. After discarding the solution and then washing the same three times with 0.1% PBST, mixtures of anti-IL-5a antibody [2-fold dilution at 2,000 nM] at various concentrations were prepared and each mixture was added in an amount of 25 μl/well to the blocked plate, 100 nM IL-5Rα was further added at 25 μl/well for 1 hour, followed by reaction at room temperature for 1 hour. […] After discarding the solution and washing three times with PBST, a TMB solution was added in an amount of 50 μl/well, color development was induced at room temperature for 2 minutes and 30 seconds, the reaction was stopped using H₂SO₄ (2N), and the absorbance at 450 nm was measured.

[7] = target: T4, sIL-5Rα (extracellular domain of human …); test: competition ELISA: IL-5-mFc coated at 100 ng/well, antibody dilution series mixed with His-tagged sIL-5Rα, bound sIL-5Rα detected with anti-His-HRP; blocked ligand IL-5-mFc
[8] = target: T4, sIL-5Rα (extracellular domain of human …); test: BLI (Octet QKe), antibody on AHC sensor, sIL-5Rα in solution, 1:1 model
Protocol: as §1

[9] = target: T4, sIL-5Rα (extracellular domain of human …); test: binding competition ELISA: IL-5-mFc coated (competitor), antibody dilutions plus 100 nM IL-5Rα, anti-his-HRP; 5R86 antibody; IL-5-mFc coated, 100 nM IL-5Rα, anti-his-HRP
Protocol: as §2

[10] = target: T4, sIL-5Rα (extracellular domain of human …); test: BLI (Octet QKe), antibody on AHC sensor, sIL-5Rα in solution, 1:1 model; remark: listed apart in the source
Protocol: as §1
(§3) Therefore, it was confirmed that the order of affinity was benralizumab>m2B7>hu2B7.

[11] = target: T4, sIL-5Rα (extracellular domain of human …); test: BLI (Octet QKe), antibody on sensor, sIL-5Rα in solution, 1:1 model
Protocol: as §1, §3

B1: benralizumab analogue (benralizumab variable regions with an IgG1 constant region) (antibody, INN chains, looked up, V domains shown)
VH: EVQLVQSGAEVKKPGASVKVSCKASGYTFTSYVIHWVRQRPGQGLAWMGYINPYNDGTKYNERFKGKVTITSDRSTSTVYMELSSLRSEDTAVYLCGREGIRYYGLLGDYWGQGTLVTVSS
VL: DIQMTQSPSSLSASVGDRVTITCGTSEDIINYLNWYQQKPGKAPKLLIYHTSRLQSGVPSRFSGSGSGTDFTLTISSLQPEDFATYYCQQGYTLPYTFGQGTKVEIK
modifications: fucosylated IgG1
Question: Which IC50 [1] does the source give for B1 here?
Answer: Its IC50 is 9.8 nM.

Question: And the Kd [2]?
Answer: The Kd was 26.8 nM.

Question: What about the koff [2] of the same binder?
Answer: Its koff is 0.0011 s⁻¹.

Question: What about the kon [2] of the same binder?
Answer: Its kon is 41100 M⁻¹ s⁻¹.

Question: And the absolute IC50 (Abs IC50), inhibition of IL-5-dependent proliferation of TF-1/IL-5Rα cells [3]?
Answer: The absolute IC50 (Abs IC50), inhibition of IL-5-dependent proliferation of TF-1/IL-5Rα cells was 1.99 nM.

B2: 5R65.7 (anti-IL-5Rα humanized antibody, affinity matured from 5R65) (antibody, V domains shown)
VH: QVQLVQSGAEVKKPGSSVKVSCKASGYTFTSYWINWVRQAPGQGLEWIGHIYPNKNENYYNHKFKDKATLTVDKSTNTAYMELSSLRSEDTAVYYCTREFYGRQYYQAMDYWGQGTTLTVSS
VL: DIQMTQSPSTLSASVGDRVTITCKASQNVGTAVAWYQQKPGKAPKLLIYWASTRHTGVPDRFSGSGSGTDFTLTISSLQPDDFATYYCQQFGRYPYTFGSGTKVEVK
Question: For B2, which “abs IC50, inhibition of IL-5-dependent proliferation of TF-1/IL-5Rα cells” value [4] is on record?
Answer: Its value is 0.57 nM.

B3: 5R65 (anti-IL-5Rα humanized antibody) (antibody, V domains shown)
VH: QVQLVQSGAEVKKPGSSVKVSCKASGYTFTSYWINWVRQAPGQGLEWIGHIYPNKNENYYNHKFKDKATLTVDKSTNTAYMELSSLRSEDTAVYYCTRDYYGRSYYYAMDYWGQGTTLTVSS
VL: DIQMTQSPSTLSASVGDRVTITCKASQNVGTAVAWYQQKPGKAPKLLIYWASTRHTGVPDRFSGSGSGTDFTLTISSLQPDDFATYYCQQFGRYPYTFGSGTKVEVK
notes: Only VH-CDR2 of hu2B7 was diversified, the light chain is that of hu2B7; also called 5R65 antibody
Question: How did the “affinity relative to the benralizumab analogue” value [5] turn out when B3 was run?
Answer: The value was about 2 fold.

Question: And the IC50 [6]?
Answer: The IC50 was 9.5 nM.

B4: 5R68 (anti-IL-5Rα humanized antibody) (antibody, IgG1, V domains shown)
VH: QVQLVQSGAEVKKPGSSVKVSCKASGYTFTSYWINWVRQAPGQGLEWIGHIYPTATIAVYNDKFKDKATLTVDKSTNTAYMELSSLRSEDTAVYYCTRDYYGRSYYYAMDYWGQGTTLTVSS
VL: DIQMTQSPSTLSASVGDRVTITCKASQNVGTAVAWYQQKPGKAPKLLIYWASTRHTGVPDRFSGSGSGTDFTLTISSLQPDDFATYYCQQFGRYPYTFGSGTKVEVK
Question: For B4, which IC50 [7] is on record?
Answer: Its IC50 is 28.8 nM.

Question: What about the Kd [8] of the same binder?
Answer: The Kd was 24.1 nM.

Question: And the koff [8]?
Answer: The koff was 0.000566 s⁻¹.

Question: What about the kon [8] of the same binder?
Answer: Its kon is 23500 M⁻¹ s⁻¹.

B5: 5R80 (anti-IL-5Rα humanized antibody) (antibody, IgG1, V domains shown)
VH: QVQLVQSGAEVKKPGSSVKVSCKASGYTFTSYWINWVRQAPGQGLEWIGHIYPQKTLTIYNHKFKDKATLTVDKSTNTAYMELSSLRSEDTAVYYCTRDYYGRSYYYAMDYWGQGTTLTVSS
VL: DIQMTQSPSTLSASVGDRVTITCKASQNVGTAVAWYQQKPGKAPKLLIYWASTRHTGVPDRFSGSGSGTDFTLTISSLQPDDFATYYCQQFGRYPYTFGSGTKVEVK
Question: For B5, which IC50 [7] is on record?
Answer: Its IC50 is 24.2 nM.

Question: And the Kd [8]?
Answer: Its Kd is 16.2 nM.

Question: And the koff [8]?
Answer: The koff was 0.000365 s⁻¹.

Question: What about the kon [8] of the same binder?
Answer: Its kon is 22500 M⁻¹ s⁻¹.

B6: 5R86 (anti-IL-5Rα humanized antibody) (antibody, IgG1, V domains shown)
VH: QVQLVQSGAEVKKPGSSVKVSCKASGYTFTSYWINWVRQAPGQGLEWIGHIYPTSSVKFYNNKFKDKATLTVDKSTNTAYMELSSLRSEDTAVYYCTRDYYGRSYYYAMDYWGQGTTLTVSS
VL: DIQMTQSPSTLSASVGDRVTITCKASQNVGTAVAWYQQKPGKAPKLLIYWASTRHTGVPDRFSGSGSGTDFTLTISSLQPDDFATYYCQQFGRYPYTFGSGTKVEVK
Question: B6 was tested. Which Kd [8] did it give?
Answer: The Kd was 11.8 nM.

Question: What about the koff [8] of the same binder?
Answer: The koff was 0.000325 s⁻¹.

Question: What about the kon [8] of the same binder?
Answer: The kon was 27600 M⁻¹ s⁻¹.

Question: What about the IC50 [9] of the same binder?
Answer: The IC50 was 14.1 nM.

B7: hu2B7 (humanized m2B7) (antibody, V domains shown)
VH: QVQLVQSGAEVKKPGSSVKVSCKASGYTFTSYWINWVRQAPGQGLEWIGHIYPSESYTNYNQKFKDKATLTVDKSTNTAYMELSSLRSEDTAVYYCTRDYYGRSYYYAMDYWGQGTTLTVSS
VL: DIQMTQSPSTLSASVGDRVTITCKASQNVGTAVAWYQQKPGKAPKLLIYWASTRHTGVPDRFSGSGSGTDFTLTISSLQPDDFATYYCQQFGRYPYTFGSGTKVEVK
notes: Expressed from plasmids encoding HC and LC and purified on protein A; also called humanized antibody hu2B7
Question: What does the source list for B7?
Answer: IC50 [7]: 57.4 nM; Kd [10]: 47.8 nM; koff [10]: 0.00106 s⁻¹; kon [10]: 22200 M⁻¹ s⁻¹

B8: m2B7 (anti-IL-5Rα mouse antibody) (antibody, V domains shown)
VH: QVQLQQPGAELVRPGASVKLSCKASGYTFTSYWINWVKQRPGQGLEWIGHIYPSESYTNYNQKFKDKATLTVDKSSSTAYMQLSSPTSEDSAVYYCTRDYYGRSYYYAMDYWGQGTSVTVSS
VL: DIVMTQSHKFMSTSVGDRVSITCKASQNVGTAVAWYQQKPGQSPKLLIYWASTRHTGVPDRFTGSGSGTDFTFTISNVQSEDLADYFCQQFGRYPYTFGGGTKLEIK
notes: also called mouse antibody m2B7; mB7
Question: For B8, which Kd [11] is on record?
Answer: The Kd was 40.2 nM.

Question: And the koff [11]?
Answer: The koff was 0.000834 s⁻¹.

Question: What about the kon [11] of the same binder?
Answer: Its kon is 20700 M⁻¹ s⁻¹.
